Two substances from paper PMC9799976 can be followed below.

Test [1] concerns the target full-length human dynein complex (heavy chain with SNAP-tag, IC, LIC, Tctex, LC8, Robl) (human) (UniProt Q14204). Briefly: single-molecule TIRF microscopy; DDJ complexes assembled with equal amounts of dynein labeled with TMR and Alexa 647, without N-DCX; two-colour colocalisation of moving molecules.
Test [2] concerns the target fluorescently labelled, biotinylated, taxol-stabilised microtubules for the TIRF assays.
Test [3] shares this target. Briefly: single-molecule TIRF microscopy; TIRF landing assay: MTs immobilised on the coverslip, GFP-tagged single-head dynein in motility buffer, 2 mM ATP, without DCX. Also noted: landing rate on MTs: unit not given here.
The target is the same in test [4]. Put plainly: single-molecule TIRF microscopy; TIRF landing assay: MTs immobilised on the coverslip, GFP-tagged single-head dynein in motility buffer, 2 mM AMPPNP, without DCX. Also noted: landing rate on MTs: unit not given here.
Test [5] has the same target. Put plainly: single-molecule TIRF microscopy; TIRF landing assay: MTs immobilised on the coverslip, GFP-tagged single-head dynein in motility buffer, 2 mM ATP, with DCX. Also noted: landing rate on MTs: unit not given here.
For test [6] the target is unchanged. Briefly: single-molecule TIRF microscopy; TIRF landing assay: MTs immobilised on the coverslip, GFP-tagged single-head dynein in motility buffer, 2 mM ADP and 0.05 U/µl hexokinase, with DCX. Also noted: landing rate on MTs: unit not given here.
Test [7] has the same target. Briefly: single-molecule TIRF microscopy; TIRF landing assay: MTs immobilised on the coverslip, GFP-tagged single-head dynein in motility buffer, 2 mM ADP and 0.05 U/µl hexokinase, without DCX. Also noted: landing rate on MTs: unit not given here.
Test [8] shares this target. Briefly: single-molecule TIRF microscopy; TIRF landing assay: MTs immobilised on the coverslip, GFP-tagged single-head dynein in motility buffer, 2 mM AMPPNP, with DCX. Also noted: landing rate on MTs: unit not given here.

Chain of fluorescently labelled, biotinylated, taxol-stabilised microtubules for the TIRF assays (chain, as listed by the source, chain 1 of 2): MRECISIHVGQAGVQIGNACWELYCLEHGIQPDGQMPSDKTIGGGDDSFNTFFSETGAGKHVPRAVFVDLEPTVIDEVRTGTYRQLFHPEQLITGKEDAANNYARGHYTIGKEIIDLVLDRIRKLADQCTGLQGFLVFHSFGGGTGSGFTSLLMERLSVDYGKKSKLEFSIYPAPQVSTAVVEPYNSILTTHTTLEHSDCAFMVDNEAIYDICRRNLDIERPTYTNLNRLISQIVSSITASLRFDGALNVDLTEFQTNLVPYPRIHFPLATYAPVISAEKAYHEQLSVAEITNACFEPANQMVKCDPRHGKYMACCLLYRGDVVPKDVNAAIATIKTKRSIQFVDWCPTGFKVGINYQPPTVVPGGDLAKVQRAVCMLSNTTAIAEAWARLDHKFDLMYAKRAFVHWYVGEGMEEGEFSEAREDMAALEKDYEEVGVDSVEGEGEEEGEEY
Chain of fluorescently labelled, biotinylated, taxol-stabilised microtubules for the TIRF assays (chain, as listed by the source, chain 2 of 2): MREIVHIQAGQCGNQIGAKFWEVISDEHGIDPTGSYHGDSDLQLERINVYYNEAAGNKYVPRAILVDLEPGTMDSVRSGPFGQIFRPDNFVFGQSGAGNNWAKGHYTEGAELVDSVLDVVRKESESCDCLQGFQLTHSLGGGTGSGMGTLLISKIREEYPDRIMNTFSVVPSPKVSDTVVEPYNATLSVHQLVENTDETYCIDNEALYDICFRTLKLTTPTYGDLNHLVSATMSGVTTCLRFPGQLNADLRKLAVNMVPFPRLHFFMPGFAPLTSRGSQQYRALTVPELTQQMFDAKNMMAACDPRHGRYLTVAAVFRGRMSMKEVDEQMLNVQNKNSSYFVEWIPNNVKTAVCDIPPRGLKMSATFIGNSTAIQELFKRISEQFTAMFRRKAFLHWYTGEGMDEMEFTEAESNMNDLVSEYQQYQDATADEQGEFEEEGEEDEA

Take “full-length human dynein complex (heavy chain with SNAP-tag, IC, LIC, Tctex, LC8, Robl) (from UniProt Q14204 1-4646; Q13409 1-638; O43237 1-492; P63172 1-113; P63167 1-89; Q9NP97 1-96)”: the fraction of colocalization of two differently labeled dyneins in moving DDJ complexes in test [1] came out at 42%.

In test [2], “tail-truncated single-headed human dynein (amino acids 1320-4646 of DYNC1H1), N-terminal GFP, Q14204 1320-4646” came in with a velocity of MT gliding powered by surface-bound single-headed dynein with 10 nM DCX (without DCX: 0.59 [0.56, 0.63] µm/s) of 0.55 µm/s. Moreover, the dwell time on MTs (median) in test [3] came to 1 s; in test [4], 1.1 s; in test [5], 1.1 s; in test [6], 1.3 s; in test [7], 1.4 s; in test [8], 1.2 s. Further, the landing rate on MTs in test [3] amounted to 1.6; in test [4] it was 2.1; in test [5], 1.4; in test [6], 1.6; in test [7] it was 2.1; in test [8], 1.1.
